# Experimental data taken from paper PMC11702068, “NEK8 promotes the progression of gastric cancer by reprogramming asparagine metabolism” (Molecular Medicine, 2025).
# B1: Flag-ASNS (wild type) [not stated] / NEK8 (partner in the co-immunoprecipitation with ASNS-WT and ASNS-S349A) [not stated] (parent)
# chain 1: MCGIWALFGSDDCLSVQCLSAMKIAHRGPDAFRFENVNGYTNCCFGFHRLAVVDPLFGMQPIRVKKYPYLWLCYNGEIYNHKKMQQHFEFEYQTKVDGEIILHLYDKGGIEQTICMLDGVFAFVLLDTANKKVFLGRDTYGVRPLFKAMTEDGFLAVCSEAKGLVTLKHSATPFLKVEPFLPGHYEVLDLKPNGKVASVEMVKYHHCRDVPLHALYDNVEKLFPGFEIETVKNNLRILFNNAVKKRLMTDRRIGCLLSGGLDSSLVAATLLKQLKEAQVQYPLQTFAIGMEDSPDLLAARKVADHIGSEHYEVLFNSEEGIQALDEVIFSLETYDITTVRASVGMYLISKYIRKNTDSVVIFSGEGSDELTQGYIYFHKAPSPEKAEEESERLLRELYLFDVLRADRTTAAHGLELRVPFLDHRFSSYYLSLPPEMRIPKNGIEKHLLRETFEDSNLIPKEILWRPKEAFSDGITSVKNSWFKILQEYVEHQVDDAMMANAAQKFPFNTPKTKEGYYYRQVFERHYPGRADWLSHYWMPKWINATDPSARTLTHYKSAVKA
# chain 2: MEKYERIRVVGRGAFGIVHLCLRKADQKLVIIKQIPVEQMTKEERQAAQNECQVLKLLNHPNVIEYYENFLEDKALMIAMEYAPGGTLAEFIQKRCNSLLEEETILHFFVQILLALHHVHTHLILHRDLKTQNILLDKHRMVVKIGDFGISKILSSKSKAYTVVGTPCYISPELCEGKPYNQKSDIWALGCVLYELASLKRAFEAANLPALVLKIMSGTFAPISDRYSPELRQLVLSLLSLEPAQRPPLSHIMAQPLCIRALLNLHTDVGSVRMRRAEKSVAPSNTGSRTTSVRCRGIPRGPVRPAIPPPLSSVYAWGGGLGTPLRLPMLNTEVVQVAAGRTQKAGVTRSGRLILWEAPPLGAGGGSLLPGAVEQPQPQFISRFLEGQSGVTIKHVACGDFFTACLTDRGIIMTFGSGSNGCLGHGSLTDISQPTIVEALLGYEMVQVACGASHVLALSTERELFAWGRGDSGRLGLGTRESHSCPQQVPMPPGQEAQRVVCGIDSSMILTVPGQALACGSNRFNKLGLDHLSLGEEPVPHQQVEEALSFTLLGSAPLDQEPLLSIDLGTAHSAAVTASGDCYTFGSNQHGQLGTNTRRGSRAPCKVQGLEGIKMAMVACGDAFTVAIGAESEVYSWGKGARGRLGRRDEDAGLPRPVQLDETHPYTVTSVSCCHGNTLLAVRSVTDEPVPP
# Variants of: B1
# Experiment: co-immunoprecipitation (IP: ASNS, IB: NEK8), band intensity quantified
# Details: parent: 4.9, read off a plot
row,response,Variant
1,3.1,chain 1 MCGIWALFGSDDCLSVQCLSAMKIAHRGPDAFRFENVNGYTNCCFGFHRLAVVDPLFGMQPIRVKKYPYLWLCYNGEIYNHKKMQQHFEFEYQTKVDGEIILHLYDKGGIEQTICMLDGVFAFVLLDTANKKVFLGRDTYGVRPLFKAMTEDGFLAVCSEAKGLVTLKHSATPFLKVEPFLPGHYEVLDLKPNGKVASVEMVKYHHCRDVPLHALYDNVEKLFPGFEIETVKNNLRILFNNAVKKRLMTDRRIGCLLSGGLDSSLVAATLLKQLKEAQVQYPLQTFAIGMEDSPDLLAARKVADHIGSEHYEVLFNSEEGIQALDEVIFSLETYDITTVRASVGMYLIAKYIRKNTDSVVIFSGEGSDELTQGYIYFHKAPSPEKAEEESERLLRELYLFDVLRADRTTAAHGLELRVPFLDHRFSSYYLSLPPEMRIPKNGIEKHLLRETFEDSNLIPKEILWRPKEAFSDGITSVKNSWFKILQEYVEHQVDDAMMANAAQKFPFNTPKTKEGYYYRQVFERHYPGRADWLSHYWMPKWINATDPSARTLTHYKSAVKA [chain 1 S349A]

# Variants of: B1
# Experiment: co-immunoprecipitation (IP: Flag-ASNS, IB: NEK8), band intensity quantified
# Details: parent: 5.4, read off a plot
row,response,Variant
1,2.7,chain 1 MCGIWALFGSDDCLSVQCLSAMKIAHRGPDAFRFENVNGYTNCCFGFHRLAVVDPLFGMQPIRVKKYPYLWLCYNGEIYNHKKMQQHFEFEYQTKVDGEIILHLYDKGGIEQTICMLDGVFAFVLLDTANKKVFLGRDTYGVRPLFKAMTEDGFLAVCSEAKGLVTLKHSATPFLKVEPFLPGHYEVLDLKPNGKVASVEMVKYHHCRDVPLHALYDNVEKLFPGFEIETVKNNLRILFNNAVKKRLMTDRRIGCLLSGGLDSSLVAATLLKQLKEAQVQYPLQTFAIGMEDSPDLLAARKVADHIGSEHYEVLFNSEEGIQALDEVIFSLETYDITTVRASVGMYLIAKYIRKNTDSVVIFSGEGSDELTQGYIYFHKAPSPEKAEEESERLLRELYLFDVLRADRTTAAHGLELRVPFLDHRFSSYYLSLPPEMRIPKNGIEKHLLRETFEDSNLIPKEILWRPKEAFSDGITSVKNSWFKILQEYVEHQVDDAMMANAAQKFPFNTPKTKEGYYYRQVFERHYPGRADWLSHYWMPKWINATDPSARTLTHYKSAVKA [chain 1 S349A]
